US20240352477A1 (ACADEMIA SINICA, published 2024)
Each block holds one binder with its values, some of them ahead of it.

Experiments:
HXK5-GFP (Ubi:HXK5-GFP) = target: T1, HXK5-GFP (Ubi:HXK5-GFP) (rice, UniProt Q5W676 1-507); assay: co-IP with RFP-Trap from co-transfected rice protoplasts, immunoblot
T1 construct: Expressed transiently in rice protoplasts; not shown: GFP reporter (pUbi:ccdB-GFP vector)
Description: (§1) FIGS. 13a to 13b. CIPK15 and HXK5/6 interact and localize at mitochondria under aerobic and hypoxic conditions. (FIG. 13a) Rice protoplasts were co-transfected with Ubi:CIPK15-mCherry and Ubi:HXK5-GFP, Ubi:HX6-GFP or Ubi:GFP (as negative control), before being cultured in medium containing 400 mM glucose with shaking (aerobic) for 12 h. Then, total proteins were extracted and pulled down using RFP trap®. Anti-RFP and anti-GFP antibodies were used to detect co-immunoprecipitated (co-IP) CIPK15-mCherry and HXK5-GFP or GFP, respectively. (FIG. 13b) Rice protoplasts were transfected with Ubi:CIPK15-mCherry, Ubi:HXK5-mCherry or Ubi:HXK6-mCherry and stained with the mitochondrial marker MitoTracker® Green FM, before being examined under confocal microscopy. T: Transmission image. Scale bar=[…]. […]
(§2) To explore these latter interactions in vivo using co-IP assays, we co-transfected rice protoplasts with Ubi:CIPK15-mCherry and Ubi:HXK5-GFP, Ubi:HXK6-GFP or Ubi:GFP (negative control) constructs. […] Our anti-RFP antibodies detected CIPK15-mCherry proteins in all eluents of CIPK15-mCherry co-IP fractions, but anti-GFP antibodies detected HXK5-GFP and HXK6-GFP present in the CIPK15-mCherry complex (FIG. 13a).

HXK6-GFP (Ubi:HXK6-GFP) = target: T2, HXK6-GFP (Ubi:HXK6-GFP) (rice, UniProt Q8LQ68 1-506); assay: as above
T2 construct: Expressed transiently in rice protoplasts; also called Ubi:HX6-GFP; not shown: GFP reporter (pUbi:ccdB-GFP vector)
T2 sequence (Q8LQ68 whole entry): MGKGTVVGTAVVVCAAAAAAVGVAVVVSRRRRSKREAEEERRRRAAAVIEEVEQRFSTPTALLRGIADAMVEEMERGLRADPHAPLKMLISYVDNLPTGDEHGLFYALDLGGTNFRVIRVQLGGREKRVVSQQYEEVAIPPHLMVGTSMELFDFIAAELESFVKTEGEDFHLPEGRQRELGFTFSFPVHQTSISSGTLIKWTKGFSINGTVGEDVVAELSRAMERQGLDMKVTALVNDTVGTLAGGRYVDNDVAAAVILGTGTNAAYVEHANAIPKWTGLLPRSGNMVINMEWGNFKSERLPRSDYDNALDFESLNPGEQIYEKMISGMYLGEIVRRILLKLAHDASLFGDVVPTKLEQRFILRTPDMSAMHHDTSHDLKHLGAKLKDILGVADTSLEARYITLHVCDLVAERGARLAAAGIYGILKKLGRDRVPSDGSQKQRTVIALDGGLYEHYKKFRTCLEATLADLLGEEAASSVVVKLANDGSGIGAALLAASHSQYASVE
Description: as §1, §2

[1] = target: T3, HXK5-nYFP (CaMV35S:HXK5-nYFP) (rice, UniProt Q5W676 1-507); assay: bimolecular fluorescence complementation (BiFC) in rice protoplasts
T3 construct: BiFC construct in rice protoplasts; not shown: N-terminal half of YFP (nYFP, p35S:ccdB-nYFP vector)
T3 sequence (Q5W676 whole entry): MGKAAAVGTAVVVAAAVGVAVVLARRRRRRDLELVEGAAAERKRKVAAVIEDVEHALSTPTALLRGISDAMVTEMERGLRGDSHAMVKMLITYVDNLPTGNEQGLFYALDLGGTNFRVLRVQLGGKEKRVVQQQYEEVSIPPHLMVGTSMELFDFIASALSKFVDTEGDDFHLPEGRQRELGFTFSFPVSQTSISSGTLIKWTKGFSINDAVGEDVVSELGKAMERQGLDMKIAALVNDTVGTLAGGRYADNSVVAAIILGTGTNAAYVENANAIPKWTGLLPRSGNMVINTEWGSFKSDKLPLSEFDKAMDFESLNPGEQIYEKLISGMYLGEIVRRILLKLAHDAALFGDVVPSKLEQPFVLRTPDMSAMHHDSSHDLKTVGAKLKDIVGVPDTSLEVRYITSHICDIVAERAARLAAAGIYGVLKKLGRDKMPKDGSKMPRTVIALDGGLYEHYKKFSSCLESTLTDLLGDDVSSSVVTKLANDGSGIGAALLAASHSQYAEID
Description: (§3) FIGS. 3a to 3g. HXK6 and VDAC1 interact with CIPK15 on mitochondria and suppress CIPK15-regulated promoters. (FIG. 3a) BiFC assay in which rice protoplasts were co-transfected with CaWV35S:cYFP-CIPK15 or CaWV-nYFP (negative control) and CaMV35S:HXK5/6-nYFP or CaMV35S:cYFP (negative control). (FIG. 3b, FIG. 3c, FIG. 3f) Rice protoplasts were transfected with plasmids, cultured in medium containing 400 mM glucose with shaking for 12 h, and then examined under confocal microscopy. Scale bar=[…]. C: cytoplasm; Mt: mitochondria. (FIG. 3b) Rice protoplasts were co-transfected with Ubi:CIPK15-mTagBFP and Ubi:HXK6-mCherry and stained with the mitochondrial marker MitoTracker® Green FM. (FIG. 3c) Rice protoplasts were co-transfected with Ubi:CIPK15-mCherry and Ubi:GFP, Ubi:HXK6-GFP, or Ubi:HXK6(Ri) constructs. (FIG. 3d, FIG. 3g) Rice protoplasts were co-transfected with effector and reporter plasmids, cultured in medium contained 400 mM glucose with shaking, and assayed for luciferase activity. (FIG. 3e) Rice protoplasts were co-transfected with Ubi:VDAC1-GFP, Ubi:CIPK15-HA and Ubi:HXK6-GFP or Ubi:HXK6-mCherry, cultured in medium containing 400 mM glucose with shaking for 12 h, and total proteins were extracted and pulled down using GFP trap®. Anti-GFP, anti-HA and anti-mRFP antibodies were used to detect HXK6-GFP or VDAC1-GFP, CIPK15-HA, and HXK6-mCherry, respectively. […]

[2] = target: T4, HXK6-nYFP (CaMV35S:HXK6-nYFP) (rice, UniProt Q8LQ68 1-506); assay: as above
T4 construct: BiFC construct in rice protoplasts; not shown: N-terminal half of YFP (nYFP, p35S:ccdB-nYFP vector)
T4 sequence (Q8LQ68 whole entry): as the sequence (Q8LQ68 whole entry) above
Description: as §3

[3] = target: T5, HXK6-mCherry (Ubi:HXK6-mCherry) (rice, UniProt Q8LQ68 1-506); assay: co-IP with GFP-Trap from co-transfected rice protoplasts, immunoblot
T5 construct: Expressed transiently in rice protoplasts; not shown: mCherry reporter (pUbi:ccdB-mCherry vector)
T5 sequence (Q8LQ68 whole entry): as above
Description: Samples were extracted from rice protoplasts in lysis buffer containing 150 mM NaCl, 0.5% NP4-0, 20 mM Tris-HCl (pH 7.5), and protease inhibitor (Roche) for 1 h at 4° C. and centrifuged at 13,000 rpm for 30 min at 4° C. Supernatants were transferred to new tubes and GFP- or RFP-conjugated proteins were pulled down with GFP-Trap®_MA beads or RFP-Trap®_MA beads. Precipitated proteins were subjected to immunoblot analysis using anti-RFP and anti-GFP antibodies.

T1 sequence (Q5W676 whole entry): as the sequence (Q5W676 whole entry) above

binding result (HXK5-GFP (Ubi:HXK5-GFP)): binds
binding result (HXK6-GFP (Ubi:HXK6-GFP)): binds
B1: CIPK15-mCherry (Ubi:CIPK15-mCherry) (enzyme)
chain: MESRGKILMERYELGRLLGKGTFGKVHYARNLESNQSVAIKMMDKQQILKVGLSEQIRREITTMRLVAHKNIVQLHEVMATRNKIYFVMEYVKGGELFEKVAKRGKLTEVVAHKYFQQLISAVDYCHSRGVYHRDLKPENLLLDENENLKVSDFGLSALSESKRQDGLLHTTCGTPAYVAPEVISKIGYDGAKSDIWSCGVILFVLVAGYLPFQGPNLMEMYRKIQHGEFRCPGWFSRKLQKLLYKIMDPNPSTRISIQKIKESTWFRKGPEENRILKERTLNENTTKNVAPVLGVRRKKNAHEDVKPMSVTNLNAFEIISFSKGFDLSGMFIVKEWRNEARFTSDKSASTIISKLEDVAKALNLRVRKKDNGVVKMQGRKEGRNGVLQFDIEIFEVTTSYHIIEMKQTSGDSLEYRQLLEEGIRPALKDIVLA
notes: Expressed transiently in rice protoplasts; not shown: mCherry reporter (pUbi:ccdB-mCherry vector)

binding result [1]: binds
binding result [2]: binds
B2: cYFP-CIPK15 (CaMV35S:cYFP-CIPK15) (enzyme)
chain: B1 chain
notes: BiFC construct in rice protoplasts; not shown: C-terminal half of YFP (cYFP, p35S:cYFP-ccdB vector)

binding result [3]: binds
B3: VDAC1-GFP (Ubi:VDAC1-GFP) (other, rice, UniProt Q6K548 2-274, looked up)
chain: VGPGLYPEIGKKARDLLYRDYQTDHKFTLTTYTSNGVAITATSTKKADLIFGEIQSQIKNKNITVDVKANSDSNVVTTVTVDELTPGLKSILSFAVPDQRSGKFELQYSHDYAGVSASIGLTASPVVNLSSVFGTKALAVGADVSLDTATGNLTKYNAGLSFSNDDLIASLNLNNKGDSLTASYYHIVNHSATAVGAELTHSFSSNENSLTFGTQHTLDPLTVVKARFNNSGKASALLQHEWRPKSVWTISAEVDTKAIDKSSKVGIAVALKP
notes: Expressed transiently in rice protoplasts and pulled down with GFP-Trap; not shown: GFP reporter (pUbi:ccdB-GFP vector)
